Five molecules from patent US20190175684A1 can be followed below.

Assay [1] has as its target annexin A1. As to the kind of experiment: QCM, peptide fixed on the sensor chip, Anxa1 injected at various doses.
For assay [2], the target named is annexin A1. The assay is described as follows: QCM (quartz crystal microbalance).

Square brackets hold non-standard residues; d marks the D form. Ends that are not written are not given here.

As usually defined, the Kd is the equilibrium constant for the complex coming apart. With [dS][dP][dT][dS][dL][dL][dF] [dSPT7 peptide], the Kd with annexin A1 [1] turned out to be 90.3 nM.

As to [dL][dR][dF][dP][dT][dV][dL] [dLRF7 peptide], the dissociation constant (Kd) with annexin A1 [1] is 31.2 nM.

As to [dT][dI][dT][dW][dP][dT][dM] [dTIT7 peptide], the Kd with annexin A1 [2] came out at 45.7 nM.

With [dL][dL][dS][dW][dP][dS][dA] [dLLS7 peptide], the dissociation constant (Kd) in the assay with annexin A1 [1] turned out to be 54.2 nM.

In turn, [dM][dP][dT][dL][dT][dF][dR] [dMPT7 peptide] yielded a dissociation constant (Kd) with annexin A1 [1] of 298 nM.
